In US20260216243A1 (TWAIN THERAPEUTICS PTE, published 2026):

T1: recombinant human interleukin 9 receptor alpha (hIL9R) fused, at the c-terminal, to a human IgG1 Fc (hIL9R-Fc) (human, UniProt Q01113 41-270)
T1 construct: Bought protein; also called Acro Biosystems, Cat. No. ILR-H5251; not shown: human IgG1 Fc fused at the C-terminal
T1 sequence: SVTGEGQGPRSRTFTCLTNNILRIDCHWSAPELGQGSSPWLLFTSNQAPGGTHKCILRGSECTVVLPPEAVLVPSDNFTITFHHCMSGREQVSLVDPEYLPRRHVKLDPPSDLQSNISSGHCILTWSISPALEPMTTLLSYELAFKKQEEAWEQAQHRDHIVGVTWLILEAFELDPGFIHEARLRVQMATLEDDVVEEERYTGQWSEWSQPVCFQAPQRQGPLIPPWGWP


How the values were obtained:
[1] = molecular target: T1, recombinant human interleukin 9 …; assay: selected from the clones positive in ELISA of periplasmic extracts on coated hIL9R-Fc
Source text: (§1) The antigen used for panning and ELISA screening was the same as the one used for immunization (Acro Biosystems, Cat. No. ILR-H5251), using uncoated blocked wells as negative control (blank) and hIgG1-Fc (Sino Biological, Cat. No. 10702-HNAH) coated wells as reference for Fc specific clones. Out of these 570 colonies tested by ELISA, 90 colonies scored positive for hIL9R-Fc only. Based on sequence data of the positive colonies, 29 different Nanobodies were distinguished, belonging to 14 different CDR3 groups (B-cell lineages)

[2] = molecular target: T2, hIgG1-Fc (human, UniProt P01857-1 99-330 = IgG part, limits assumed); assay: ELISA, crude periplasmic extracts on hIgG1-Fc coated wells as reference for Fc specific clones
T2 construct: domain: Fc; also called Sino Biological, Cat. No. 10702-HNAH
Source text: as §1

| binding result [1] | binding result [2] | Binder |
| --- | --- | --- |
| binds | no binding | 2SAT57 (VHH, Screened as soluble Nanobody in crude periplasmic extracts, expressed from pMECS-GG; also called T3; VHH anti-IL-9Rα 2SAT57) VHH: QVQLQESGGGLVQAGGSLRLSCAASGSIFSINAMGWFRQAPGKQRELVAVISSGGSTNHADSVKGRFTISRDNAKNTVYLQMNSVKPEDTAVYYCLVATRGGTYEYWGQGTQVTVSS |
| binds | no binding | 2SAT363 (VHH, Screened as soluble Nanobody in crude periplasmic extracts, expressed from pMECS-GG; also called T2; VHH anti-IL-9Rα 2SAT363) VHH: QVQLQESGGGLVQAGGSLRLSCTVSGSFFNINAMGWYRQAPGKQRELVATITAGGSTKYEDTVKGRFTISGDSAKNTVSLQMNSLKPEDTAVYYCAAWGTRIRDDYWGQGTQVTVSS |
